Experimental data published in patent US20220275083A1 (EUTILEX, published 2022).
Positions count from the first letter of the chain named. Names may count otherwise. Values belong to the binder of their own block, whether it stands above or below them.

How the values were obtained:
[1] = target: T1, biotinylated C1q (comp Tech, Cat. No. A099) protein (UniProt P02745 23-245; P02746 28-253; P02747 29-245, biotinylated (chain not stated)); assay: C1q ELISA, S03 coated at 75 nM, biotinylated C1q titrated in 2-fold steps from 2 ug/ml, avidin-HRP
T1 construct: Bought C1q, biotinylated with a kit

[2] = target: T2, PD-L1 antigen (SinoBiologics, Cat. No. 10084-H08H) (human, UniProt Q9NZQ7 19-238); assay: SPR, Biacore T200; S03 captured on CM5, PD-L1 antigen injected (same values as Table 2)
T2 construct: Bought antigen; also called human PD-L1
Method: (§1) Affinity to 4-1BB was determined using the bispecific epitope binding protein variants diluted to 5 μg/ml and then fixed to CM5 chip (Cytiva, BR-1005-30) with human capture (Cytiva, Cat. No. BR-1008-39). The 4-1BB antigen (abclon) was injected at concentrations of 100, 50, 25, 12.5, 6.25, and 3.125 nM, the association time was set to 150 seconds, and the dissociation time was set to 240 seconds. Biacore T200 (cytiva) was used as the analysis equipment.
(§2) Affinity to PD-L1 was determined using the bispecific epitope binding protein variants diluted to 10 μg/ml and then fixed to CM5 chip with human capture.

[3] = target: T2, PD-L1 antigen (SinoBiologics, Cat. No. …); assay: dual antigen ELISA: PD-L1 coated, S03 titrated, detected with biotinylated 4-1BB and avidin-HRP (signal needs both antigens)
[4] = target: T2, PD-L1 antigen (SinoBiologics, Cat. No. …); assay: SPR, Biacore T200; S03 captured on CM5, PD-L1 antigen injected (same values as Table 2); Table 3, comparison with natural PD1-Fc
[5] = target: T3, biotinylated PD-L2 (SinoBiologics, Cat. No. 10292-H08H-B) (UniProt Q9BQ51 20-219, biotinylated); assay: ELISA, S03 coated in 4-fold dilutions up to 0.1 ug/ml, biotinylated PD-L2 0.1 ug/ml, avidin-HRP
T3 construct: Bought antigen
T3 sequence (looked up): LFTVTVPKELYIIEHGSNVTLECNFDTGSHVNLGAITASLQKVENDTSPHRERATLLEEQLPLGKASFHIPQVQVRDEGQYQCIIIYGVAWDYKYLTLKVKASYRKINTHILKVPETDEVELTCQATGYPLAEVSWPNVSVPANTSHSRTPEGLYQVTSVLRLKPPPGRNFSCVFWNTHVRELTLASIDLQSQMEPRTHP

[6] = target: T4, 4-1BB antigen (abclon) (UniProt Q07011 24-186); assay: SPR, Biacore T200; variant captured on CM5, 4-1BB antigen injected
T4 construct: Bought antigen
Method: as §1

[7] = target: T2, PD-L1 antigen (SinoBiologics, Cat. No. …); assay: SPR, Biacore T200; variant captured on CM5, PD-L1 antigen injected
Method: as §1, §2

[8] = target: T2, PD-L1 antigen (SinoBiologics, Cat. No. …); assay: SPR, Biacore T200; comparison of S03 with human PD-1-Fc
[9] = target: T2, PD-L1 antigen (SinoBiologics, Cat. No. …); assay: ELISA, PD-L1 antigen coated, anti-human IgG Fc-HRP detection, 11 points

T4 sequence (Q07011 24-186): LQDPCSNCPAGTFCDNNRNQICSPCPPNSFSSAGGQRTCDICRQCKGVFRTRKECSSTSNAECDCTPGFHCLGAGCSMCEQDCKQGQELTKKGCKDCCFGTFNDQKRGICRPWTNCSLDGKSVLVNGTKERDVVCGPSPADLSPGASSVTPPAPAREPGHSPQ
T2 sequence (Q9NZQ7 19-238 limits assumed): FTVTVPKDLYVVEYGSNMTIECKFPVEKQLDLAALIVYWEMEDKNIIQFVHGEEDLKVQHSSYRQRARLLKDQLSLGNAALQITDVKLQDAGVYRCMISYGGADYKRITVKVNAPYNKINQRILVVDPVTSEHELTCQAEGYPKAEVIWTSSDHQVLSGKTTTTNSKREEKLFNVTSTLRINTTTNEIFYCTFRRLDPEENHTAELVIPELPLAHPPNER
T1 sequence (P02745 23-245, chain 1 of 3): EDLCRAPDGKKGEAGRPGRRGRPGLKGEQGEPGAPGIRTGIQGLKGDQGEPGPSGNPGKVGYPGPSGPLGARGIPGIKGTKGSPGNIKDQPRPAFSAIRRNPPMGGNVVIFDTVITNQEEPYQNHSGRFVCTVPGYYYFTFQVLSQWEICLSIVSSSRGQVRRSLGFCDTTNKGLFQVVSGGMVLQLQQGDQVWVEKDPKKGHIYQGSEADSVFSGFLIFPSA
T1 sequence (P02746 28-253, chain 2 of 3): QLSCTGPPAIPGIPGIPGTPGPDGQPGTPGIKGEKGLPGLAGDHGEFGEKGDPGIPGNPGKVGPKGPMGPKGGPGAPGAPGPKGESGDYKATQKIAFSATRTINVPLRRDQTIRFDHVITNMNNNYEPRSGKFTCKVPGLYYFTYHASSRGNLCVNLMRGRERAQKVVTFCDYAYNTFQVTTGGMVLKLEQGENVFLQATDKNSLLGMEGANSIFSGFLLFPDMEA
T1 sequence (P02747 29-245, chain 3 of 3): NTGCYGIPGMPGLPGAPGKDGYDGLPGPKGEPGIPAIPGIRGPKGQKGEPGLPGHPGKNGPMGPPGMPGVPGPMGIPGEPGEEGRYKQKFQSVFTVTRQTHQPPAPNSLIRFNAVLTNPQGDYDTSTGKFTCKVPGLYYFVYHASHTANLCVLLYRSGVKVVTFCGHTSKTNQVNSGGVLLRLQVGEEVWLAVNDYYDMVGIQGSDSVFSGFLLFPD

binding result [1]: no binding (tested: 2 ug/ml C1q)
Kd [2]: 5.07 nM
koff [2]: 0.00115 s⁻¹
EC50 (read off the curve) [3]: ~0.05 µg/mL
kon [4]: 227000 M⁻¹ s⁻¹
Kd [6]: 3.05 nM
koff [6]: 0.000634 s⁻¹
kon [6]: 208000 M⁻¹ s⁻¹
Kd [7]: 5.07 nM
koff [7]: 0.00115 s⁻¹
kon [7]: 227000 M⁻¹ s⁻¹
fold stronger binding than natural PD-1 (human PD-1-Fc) [8]: ~93 fold
B1: bispecific epitope binding protein S03 (bispecific antibody)
chain: DIVMTQSPAFLSVTPGEKVTITCRASQTISDYLHWYQQKPDQAPKLLIKYASQSISGIPSRFSGSGSGTDFTFTISSLEAEDAATYYCQDGHSWPPTFGQGTKLEIKGSTSGSGKPGSGEGSTKGQVQLVQSGAEVKKPGASVKLSCKASGYTFSSYWMHWVRQAPGQGLEWIGEINPGNGHTNYNEKFKSRVTMTRDTSTSTAYMELSSLRSEDTAVYYCARSFKTARAFAYWGQGTLVTVSSASGGGGSGGGGSDKTHTCPPCPAPEAAGGPSVFLFPPKPKDTLMISRTPEVTCVVVDVSHEDPEVKFNWYVDGVEVHNAKTKPREEQYNSTYRVVSVLTVLHQDWLNGKEYKCAVSNKALPAPIEKTISKAKGQPREPQVYTLPPSREEMTKNQVSLTCLVKGFYPSDIAVEWESNGQPENNYKTTPPVLDSDGSFFLYSKLTVDKSRWQQGNVFSCSVMHEALHNHYTQKSLSLSPGGGGGSGGGGSFLESPDRPWNAPTFSPALLLVAEGDNATFTCSFSNASESFHVVWHRESPSGQTDTLAAFPEDRSQPGQDHRFRVTRLPNGRDFHMSVVRAQRNDSGTYVCGVISLAPKIQIKESLRAELRVTERRAEVPTAHPSPSPRPAGQFQTLVVG
notes: Anti-4-1BB 94kvt scFv x euPD-1 with hinge and engineered IgG1 Fc (L234A, L235A, K322A, D356E, L358M)
binding result [5]: no binding (tested: log10 2.0 ng/mL (100 ng/mL coated))

B2: S13 (PD-L1 null variant of S03) (bispecific antibody)
chain: B1 chain with T547A, I595A, I603A
binding result [9]: no binding (tested: log 1.7 ug/mL as drawn (about 50 ug/mL))

Kd [6]: 3.67 nM
koff [6]: 0.000658 s⁻¹
kon [6]: 179000 M⁻¹ s⁻¹
Kd [7]: 4.06 nM
koff [7]: 0.00132 s⁻¹
kon [7]: 324000 M⁻¹ s⁻¹
B3: bispecific epitope binding protein S02 (bispecific antibody)
chain: QVQLVQSGAEVKKPGASVKLSCKASGYTFSSYWMHWVRQAPGQGLEWIGEINPGNGHTNYNEKFKSRVTMTRDTSTSTAYMELSSLRSEDTAVYYCARSFKTARAFAYWGQGTLVTVSSGSTSGSGKPGSGEGSTKGDIVMTQSPAFLSVTPGEKVTITCRASQTISDYLHWYQQKPDQAPKLLIKYASQSISGIPSRFSGSGSGTDFTFTISSLEAEDAATYYCQDGHSWPPTFGQGTKLEIKASGGGGSGGGGSDKTHTCPPCPAPEAAGGPSVFLFPPKPKDTLMISRTPEVTCVVVDVSHEDPEVKFNWYVDGVEVHNAKTKPREEQYNSTYRVVSVLTVLHQDWLNGKEYKCAVSNKALPAPIEKTISKAKGQPREPQVYTLPPSREEMTKNQVSLTCLVKGFYPSDIAVEWESNGQPENNYKTTPPVLDSDGSFFLYSKLTVDKSRWQQGNVFSCSVMHEALHNHYTQKSLSLSPGGGGGSGGGGSFLESPDRPWNAPTFSPALLLVAEGDNATFTCSFSNASESFHVVWHRESPSGQTDTLAAFPEDRSQPGQDHRFRVTRLPNGRDFHMSVVRAQRNDSGTYVCGVISLAPKIQIKESLRAELRVTERRAEVPTAHPSPSPRPAGQFQTLVVGGGGGSGGGGSGGGGSFLESPDRPWNAPTFSPALLLVAEGDNATFTCSFSNASESFHVVWHRESPSGQTDTLAAFPEDRSQPGQDHRFRVTRLPNGRDFHMSVVRAQRNDSGTYVCGVISLAPKIQIKESLRAELRVTERRAEVPTAHPSPSPRPAGQFQTLVVG
notes: Anti-4-1BB 94kvt scFv x euPD-1 with hinge and engineered IgG1 Fc
